Experimental data published in patent US20180155451A1 (published 2018).

Tests used:
Experiment in all cases: SPR (Biacore), antibody captured on chip, FcgR extracellular domain as analyte, 25 C, 1:1 Langmuir fit; experiment #3
[1] = biological target: T1, FcgRIIb extracellular domain, C-terminal His tag (human, UniProt P31994 43-217)
T1 construct: extracellular domain; also called FcγRIIb; 2b; not shown: His tag attached to the C terminus
T1 sequence (looked up): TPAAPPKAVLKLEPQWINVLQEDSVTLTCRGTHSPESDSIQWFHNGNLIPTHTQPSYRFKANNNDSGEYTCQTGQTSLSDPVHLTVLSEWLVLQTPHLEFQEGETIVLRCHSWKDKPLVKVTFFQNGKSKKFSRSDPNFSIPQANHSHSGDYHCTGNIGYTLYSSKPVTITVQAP
Protocol: (§1) Antibodies of interest were analyzed for the interaction to FcgR according to the method described in Reference Example 8.
(§2) Analysis of interaction between obj ective antibody and the FcγR was carried out using Biacore T100 (GE Healthcare), Biacore T200, Biacore A100, and Biacore 4000. HBS-EP+ (GE Healthcare) was used as the running buffer, and the measurement temperature was set to 25° C. Chips produced by immobilizing the antigen peptide by the amine coupling method to a Series S sensor Chip CM5 (GE Healthcare), chips produced by allowing preliminarily biotinylated antigen peptides to interact with and immobilize onto a Series S Sensor Chip SA (certified) (GE Healthcare), chips produced by immobilizing Protein L (ACTIGEN, BioVision) to Series S Sencor Chip CM5 (GE Healthcare), or chips produced by immobilizing Protein A/G (Thermo Scientific) to Series S Sencor Chip CM5 (GE Healthcare) were used. Antibodies of interest were captured onto these chips, and allowed to interact to each FcγR diluted with running buffer. To regenerate and repeatedly use the chip, the antibodies captured onto the chip were washed off by reacting 10 mM glycine-HCl, pH 1.5.

[2] = biological target: T2, FcgRIIa R type extracellular domain, C-terminal His tag (human, UniProt P12318 34-217)
T2 construct: extracellular domain; also called FcγRIIa R; 2aR; not shown: His tag attached to the C terminus
T2 sequence (looked up): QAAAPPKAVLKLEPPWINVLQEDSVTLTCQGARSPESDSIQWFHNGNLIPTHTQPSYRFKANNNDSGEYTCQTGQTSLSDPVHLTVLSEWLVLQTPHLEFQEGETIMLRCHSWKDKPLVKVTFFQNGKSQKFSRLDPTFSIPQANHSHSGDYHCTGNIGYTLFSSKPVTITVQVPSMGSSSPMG
Protocol: as §1, §2

[3] = biological target: T3, FcgRIIIa F type extracellular domain, C-terminal His tag (human, UniProt P08637 17-208)
T3 construct: extracellular domain; also called FcγRIIIa F; 3aF; not shown: His tag attached to the C terminus
T3 sequence (P08637 17-208): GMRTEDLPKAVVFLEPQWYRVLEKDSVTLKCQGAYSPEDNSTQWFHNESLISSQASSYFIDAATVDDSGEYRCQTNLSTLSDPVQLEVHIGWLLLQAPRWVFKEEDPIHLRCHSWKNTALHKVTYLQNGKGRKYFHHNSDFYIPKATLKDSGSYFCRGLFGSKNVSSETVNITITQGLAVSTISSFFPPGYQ
Protocol: as §1, §2

[4] = biological target: T4, FcgRI extracellular domain, C-terminal His tag (human, UniProt P12314 16-292)
T4 construct: extracellular domain; also called FcγRIa; FcgRIa; not shown: His tag attached to the C terminus
T4 sequence (P12314 16-292): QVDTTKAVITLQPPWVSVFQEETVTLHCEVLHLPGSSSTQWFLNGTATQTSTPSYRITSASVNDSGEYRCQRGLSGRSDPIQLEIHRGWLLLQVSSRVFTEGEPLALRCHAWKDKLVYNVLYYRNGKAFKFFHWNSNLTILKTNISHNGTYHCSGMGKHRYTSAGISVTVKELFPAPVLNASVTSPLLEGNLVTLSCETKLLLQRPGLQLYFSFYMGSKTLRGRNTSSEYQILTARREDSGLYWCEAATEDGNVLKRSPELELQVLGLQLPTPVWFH
Protocol: as §1, §2

[5] = biological target: T5, FcgRIIIa V type extracellular domain, C-terminal His tag (human, UniProt P08637 17-208)
T5 construct: extracellular domain; also called FcγRIIIa V; 3aV; not shown: His tag attached to the C terminus
T5 sequence (P08637 17-208 F176V limits assumed): as the sequence (P08637 17-208) above, with F160V counted along it
Protocol: as §1, §2

[6] = biological target: T6, FcgRIIa H type extracellular domain, C-terminal His tag (human, UniProt P12318 34-217)
T6 construct: extracellular domain; also called FcγRIIa H; 2aH; not shown: His tag attached to the C terminus
T6 sequence (looked up): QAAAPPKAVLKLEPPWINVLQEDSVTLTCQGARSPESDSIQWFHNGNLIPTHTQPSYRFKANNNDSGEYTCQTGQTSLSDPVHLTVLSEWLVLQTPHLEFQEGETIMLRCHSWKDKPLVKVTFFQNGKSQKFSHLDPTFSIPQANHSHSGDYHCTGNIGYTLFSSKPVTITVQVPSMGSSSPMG
Protocol: as §1, §2

Binder	Kd [1] [nM]	Kd [2] [nM]	Kd [3] [nM]	Kd [4] [nM]	Kd [5] [nM]	Kd [6] [nM]
H240-FA021/H240-FB059/L73-k0 (antibody, human IgG1, kappa, Heterodimerized anti-epiregulin IgG1 antibody) heavy 1: QDQLVQSGAEVKKPGASVKVSCKASGFNIKDTYIQWVRQAPGQGLEWMGRIDPLRKQTKYREKFEGRVTITADTSTNTAYMELSSLRSEDTAVYYCVRSGREFDYWGQGTLVTVSSASTKGPSVFPLAPSSKSTSGGTAALGCLVKDYFPEPVTVSWNSGALTSGVHTFPAVLQSSGLYSLSSVVTVPSSSLGTKTYTCNVNHKPSNTKVDKKVEPKSCDKTHTCPPCPAPEYYWGPSVFLFPPKPKDTLMISRTPEVTCVVVDVSDEEPEVKFNWYVDGVEVHNAKTKPREEQYNATYRVVSVLTVLHQDWLNGKEYKCKVSNKALPAPIEKTISKAKGQPREPQVYTLPPSRKEKTKNQVSLTCLVKGFYPSDIAVEWESNGQPENNYKTTPPKLDSDGSFFLYSKLTVDKSRWQQGNVFSCSVMHEALHNRYTQKSLSLSP heavy 2: QDQLVQSGAEVKKPGASVKVSCKASGFNIKDTYIQWVRQAPGQGLEWMGRIDPLRKQTKYREKFEGRVTITADTSTNTAYMELSSLRSEDTAVYYCVRSGREFDYWGQGTLVTVSSASTKGPSVFPLAPSSKSTSGETAALGCLVEDYFPEPVTVSWNSGALTSGVHTFPAVLQSSGLYSLSSVVTVPSSSLGTQTYICNVNHKPSNTKVDKKVEPKSCDKTHTCPPCPAPELLGGPSVFLFPPKPKDTLMISRTPEVTCVVVDVSHEEPEVQFNWYVDGVEVHNAETKPREEQYNSTYRVVSVLTVLHQDWLNGKEYKCKVSNDALPMPIEETISKAKGQPREPQVYTLPPSREEMTKNQVSLTCLVKGFYPSDIAVEWESNGQPENNYKTTPPVLDSDGSFFLYSKLTVDKSRWQQGNVFSCSVMHEALHNHYTQESLSLSP light: DIQMTQSPSSLSASVGDRVTITCRASQDIHKYIAWYQQKPGQAPRLLIQYTSTLQPGVPSRFSGSGSGTDYTFTISSLQPEDIATYYCLQYEQLRTFGGGTKVEIKRTVAAPSVFIFPPSDEQLKSGTASVVCLLNNFYPREAKVQWKVDNALQSGNSQESVTEQDSKDSTYSLSSTLTLSKADYEKHKVYACEVTHQGLSSPVTKSFNRGEC	1300	280	4.4	0.069	1.7	92
H240-FA020/H240-FB059/L73-k0 (antibody, human IgG1, kappa, Heterodimerized anti-epiregulin IgG1 antibody) heavy 1: QDQLVQSGAEVKKPGASVKVSCKASGFNIKDTYIQWVRQAPGQGLEWMGRIDPLRKQTKYREKFEGRVTITADTSTNTAYMELSSLRSEDTAVYYCVRSGREFDYWGQGTLVTVSSASTKGPSVFPLAPSSKSTSGGTAALGCLVKDYFPEPVTVSWNSGALTSGVHTFPAVLQSSGLYSLSSVVTVPSSSLGTKTYTCNVNHKPSNTKVDKKVEPKSCDKTHTCPPCPAPEYYWGPSVFLFPPKPKDTLMISRTPEVTCVVVDVSDEEPEVKFNWYVDGVEVHNAKTKPREEQYNATYRVVSVLTVLHQDWLNGKEYKCKVSNKALPAPIEKTISKAKGQPREPQVYTLPPSRKEKTKNQVSLTCLVKGFYPSDIAVEWESNGQPENNYKTTPPVLDSDGSFFLYSKLTVDKSRWQQGNVFSCSVMHEALHNRYTQKSLSLSP heavy 2: QDQLVQSGAEVKKPGASVKVSCKASGFNIKDTYIQWVRQAPGQGLEWMGRIDPLRKQTKYREKFEGRVTITADTSTNTAYMELSSLRSEDTAVYYCVRSGREFDYWGQGTLVTVSSASTKGPSVFPLAPSSKSTSGETAALGCLVEDYFPEPVTVSWNSGALTSGVHTFPAVLQSSGLYSLSSVVTVPSSSLGTQTYICNVNHKPSNTKVDKKVEPKSCDKTHTCPPCPAPELLGGPSVFLFPPKPKDTLMISRTPEVTCVVVDVSHEEPEVQFNWYVDGVEVHNAETKPREEQYNSTYRVVSVLTVLHQDWLNGKEYKCKVSNDALPMPIEETISKAKGQPREPQVYTLPPSREEMTKNQVSLTCLVKGFYPSDIAVEWESNGQPENNYKTTPPVLDSDGSFFLYSKLTVDKSRWQQGNVFSCSVMHEALHNHYTQESLSLSP light: DIQMTQSPSSLSASVGDRVTITCRASQDIHKYIAWYQQKPGQAPRLLIQYTSTLQPGVPSRFSGSGSGTDYTFTISSLQPEDIATYYCLQYEQLRTFGGGTKVEIKRTVAAPSVFIFPPSDEQLKSGTASVVCLLNNFYPREAKVQWKVDNALQSGNSQESVTEQDSKDSTYSLSSTLTLSKADYEKHKVYACEVTHQGLSSPVTKSFNRGEC	1300	250	3.5	0.038	1.3	77
H240-FA020/H240-FB082/L73-k0 (antibody, human IgG1, kappa, Heterodimerized anti-epiregulin IgG1 antibody) heavy 1: QDQLVQSGAEVKKPGASVKVSCKASGFNIKDTYIQWVRQAPGQGLEWMGRIDPLRKQTKYREKFEGRVTITADTSTNTAYMELSSLRSEDTAVYYCVRSGREFDYWGQGTLVTVSSASTKGPSVFPLAPSSKSTSGGTAALGCLVKDYFPEPVTVSWNSGALTSGVHTFPAVLQSSGLYSLSSVVTVPSSSLGTKTYTCNVNHKPSNTKVDKKVEPKSCDKTHTCPPCPAPEYYWGPSVFLFPPKPKDTLMISRTPEVTCVVVDVSDEEPEVKFNWYVDGVEVHNAKTKPREEQYNATYRVVSVLTVLHQDWLNGKEYKCKVSNKALPAPIEKTISKAKGQPREPQVYTLPPSRKEKTKNQVSLTCLVKGFYPSDIAVEWESNGQPENNYKTTPPVLDSDGSFFLYSKLTVDKSRWQQGNVFSCSVMHEALHNRYTQKSLSLSP heavy 2: QDQLVQSGAEVKKPGASVKVSCKASGFNIKDTYIQWVRQAPGQGLEWMGRIDPLRKQTKYREKFEGRVTITADTSTNTAYMELSSLRSEDTAVYYCVRSGREFDYWGQGTLVTVSSASTKGPSVFPLAPSSKSTSGETAALGCLVEDYFPEPVTVSWNSGALTSGVHTFPAVLQSSGLYSLSSVVTVPSSSLGTQTYICNVNHKPSNTKVDKKVEPKSCDKTHTCPPCPAPELLGGPSVFLFPPKPKDTLMISRTPEVTCVVVDVSHEEPEVQFNWYVDGVEVHNAETKPREEQYNSTYRVVSVLTVLHQDWLNGKEYKCKVSNDALPMPIEETISKAKGQPREPQVYTLPPSREEMTKNQVSLTCLVKGFYPSDIAVEWESEGQPENNYKTTPPVLDSDGSFFLYSKLTVDKSRWQQGNVFSCSVMHEALHNHYTQESLSLSP light: DIQMTQSPSSLSASVGDRVTITCRASQDIHKYIAWYQQKPGQAPRLLIQYTSTLQPGVPSRFSGSGSGTDYTFTISSLQPEDIATYYCLQYEQLRTFGGGTKVEIKRTVAAPSVFIFPPSDEQLKSGTASVVCLLNNFYPREAKVQWKVDNALQSGNSQESVTEQDSKDSTYSLSSTLTLSKADYEKHKVYACEVTHQGLSSPVTKSFNRGEC	1200	270	3.4	0.079	1.1	69
